Measured values reported in patent US20180071413A1 (INSERM INSTITUT NATIONAL DE LA SANTE ET DE LA RECHERCHE …, published 2018).
Each block holds one binder with its values, some of them ahead of it.

Assays:
human PD-L1 [1] = molecular target: T1, human PD-L1 (human, UniProt Q9NZQ7 19-290); assay: Scatchard analysis on cells, 4 h on ice, 3-3000 pM ^111In-PD-L1.3.1, non-specific binding determined with 100 nM unlabeled antibody; 111In-labeled antibody, Scatchard analysis; MDA-MB-231 cells by paragraph 130
T1 construct: whole, on cells; Target presented on human breast cancer cell lines; The quantitative assays (IRF, IC50, Kd) used MDA-MB-231 cells; also called CD274; Programmed Cell Death 1 Ligand 1
Experimental: (§1) Cells were cultured to confluency in six-well plates and were incubated for 4 h on ice with increasing concentrations ¹¹¹In-PD-L1.3.1 (3-3000 pM) in 1 ml RPMI1640 containing 0.5% BSA. Non-specific binding was determined by co-incubation with 100 nM PD-L1.3.1. After incubation, cells were washed with PBS and the cell-associated activity was measured in a shielded well-type gamma counter. The specific binding (total binding—nonspecific binding) was plotted against the bound/free ratio. Data were analyzed by linear regression to determine PD-L1 receptor density per cell and to determine the Kd of ¹¹¹In-PD-L1.3.1.

human PD-L1 [2] = molecular target: T1, human PD-L1; assay: saturation binding of ^111In-PD-L1.3.1 on cells, 4 h on ice, called Scatchard analysis in the filing; the cell line is not printed on the sheet (MDA-MB-231 used in the subsequent binding assays)
Experimental: as §1

human PD-L1 [3] = molecular target: T1, human PD-L1; assay: competition on MDA-MB-231 cells, 4 h on ice: unlabeled PD-L1.3.1 (1-1000 pM) against 20 pM ^111In-PD-L1.3.1, gamma counter; unlabeled antibody, competition on MDA-MB-231 cells
Experimental: MDA-MB-231 cells were cultured to confluency in six-well plates. The 50% inhibitory concentration (IC₅ₒ) of PD-L1.3.1 blocking of ¹¹¹In-PD-L1.3.1 binding was determined by incubating the cells for 4 h on ice in 1 ml RPMI1640 0.5% BSA, containing 20 pM ¹¹¹In-PD-L1.3.1 (1 kBq) and increasing concentrations of unlabeled PD-L1.3.1 (1-1000 pM). After incubation, cells were washed with PBS and the cell-associated activity was measured in a gamma counter. The IC₅₀ was defined as the antibody concentration that was required to inhibit binding of the radio labeled antibody by 50%. IC₅₀ values were calculated using GraphPad Prism.

T1 sequence (Q9NZQ7 19-290): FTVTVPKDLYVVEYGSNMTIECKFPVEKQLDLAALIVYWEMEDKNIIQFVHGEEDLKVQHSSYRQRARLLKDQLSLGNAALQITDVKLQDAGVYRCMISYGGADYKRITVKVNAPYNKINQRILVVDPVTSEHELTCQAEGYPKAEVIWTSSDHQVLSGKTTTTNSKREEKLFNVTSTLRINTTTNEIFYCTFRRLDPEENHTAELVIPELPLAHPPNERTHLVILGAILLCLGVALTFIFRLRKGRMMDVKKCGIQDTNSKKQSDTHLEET

- Kd (human PD-L1 [1]): 0.97 nM
- Kd (human PD-L1 [2]): 1 nM
B1: ^111In-DTPA-PD-L1.3.1 (antibody, V domains shown)
VH: EVQLQQSGTELVKPGASVKLSCTTSGFNIQDTYMHWVKQRPEQGLEWIGWIDPANGNTKYDPKFQGKATIIADTSSNTAYLQLRGLTSEDTAVYYCARSGVSTAHFDYWGQGTTLTVSS
VL: QIVLSQSPAILSASPGEKVTMTCRASSSVSFMHWYQQKPGSSPKPWIYATSNLASGVPTRFSGSGSGTSYSLTLSRVEAEDAATYYCQQWSSYPRTFGGGTKLEIK
modifications: ITC-DTPA conjugate chelating ^111In; conjugated residues and chain not stated

- IC50 (human PD-L1 [3]): 0.15 nM
B2: PD-L1.3.1 antibody (unlabeled) (antibody, V domains shown)
VH: B1 VH
VL: B1 VL
notes: also called unlabeled PD-L1.3.1
